Laboratory results as given in PMC12327846.

Target: T1, DtxR (Corynebacterium glutamicum) (UniProt Q8NP95)
T1 sequence: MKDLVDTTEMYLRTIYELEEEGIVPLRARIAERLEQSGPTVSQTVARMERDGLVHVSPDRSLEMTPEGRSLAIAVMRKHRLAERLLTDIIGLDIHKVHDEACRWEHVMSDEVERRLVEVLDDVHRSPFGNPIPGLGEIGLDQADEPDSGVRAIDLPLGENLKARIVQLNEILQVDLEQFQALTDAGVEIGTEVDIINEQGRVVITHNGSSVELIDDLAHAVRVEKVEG
Assay: EMSA
Conditions: EMSA: 31 nM DNA, DtxR at 0/50/200-fold (A) or 0/300/400-fold (B) excess; 50 mM Tris-HCl pH 7.5, 5 mM MgCl2 (rest of buffer not in material); 30 min, room …

Row | Sequence | binding
1 | AACCTGGGGGTTATATAAAAAACTTCACAAAAAGGTTGCATCCGCATCAACCGAAAGATAGTGTGTGTGAGGCAAGCCTAAGTAAACTTCTTCAAGGTTCGGGCTGGTTCCTTGAAGACGG (double strand) [xerC promoter 121 bp] | binds
2 | TAGTCGTATCAAAAAGTGCTCTGATCTTAACTTTGCCCTACCTAAATACATGACCCCACCACGACGGCCAGTACTAACGACAGAATCCACTAGCGAACCCATTTATTAACAAACATTGCAA (double strand) [NCgl2776 promoter 121 bp (primers named NCgl2766)] | binds
3 | TTTGACGTGCTTTTTTAGCACGCCATTAAGCTAAAAATAAGGTTAGGGTGCGTTATGTTTTCAGGTATCAAAAGGTGCTAATGCCTTTATTGTGTTTCGCATTGTCATTTACCACATGAAG (double strand) [cepA promoter 121 bp] | binds
4 | GAGTAGTAGCAGTGGGTATTTGCAAGCCTTTGACAAGTTACTAAACCGTGCTACCGAAACCCCTCGTGTTTAAATCTAGAAGTTTAAAGGGTGAAAACAGTCCATTACTTAAGCACCAATC (double strand) [NCgl0177 promoter 121 bp] | no binding
5 | GGACCTAAGCGTGTAAGATGGAAACGTCTGTATCGGATAAGTAGCGAGGAGTGTTCGTTAAAAGTGGCAAACACTGAACACAATTATGACGCTTCATCGATCACCATCCTTGAAGGTCTTG (double strand) [gyrB promoter 121 bp] | no binding
6 | GTGGCGCTTTGCCTGTGTTGCTTAGGCGGCGTTGAAAATGAACTACGAATGAAAAGTTCGGGAATTGTCTAATCCGTACTAAGCTGTCTACACAATGTCTACTTCAGTTACTTCACCAGC (double strand) [metH promoter 121 bp] | binds
